These results are taken from patent US20140274782A1, “AFFINITY REAGENTS AND METHODS FOR DETECTION, PURIFICATION, AND PROTEOMIC ANALYSIS OF METHYLATED PROTEINS” (The Board of Trustees of the Leland Stanford Junior …, priority 2013, published 2014).

The test system of experiment [1] is 3×MBT domain of L3MBTL1. Description: Triple SILAC pull-down, 3xMBT/3xMBTD355N ratio (cytoplasmic, nuclear and chromatin fractions of 293T cells).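 For all read-outs here: proteins quantified with MaxQuant, requiring at least two unique peptides and quantification in both label directions, normalized to the mean of proteins from a digested loading control.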 The format is binding, human. To be noted: SILAC ratio; for Protein Ratios 3xMBT/D355N: pull-down by 3xMBT vs 3xMBTD355N, 293T cells.
Experiment [2] concerns the target T1, G9a and GLP (Homo sapiens, UniProt Q96KQ7+Q9H9B1).
T1 sequence (Q96KQ7 2-1210 limits assumed): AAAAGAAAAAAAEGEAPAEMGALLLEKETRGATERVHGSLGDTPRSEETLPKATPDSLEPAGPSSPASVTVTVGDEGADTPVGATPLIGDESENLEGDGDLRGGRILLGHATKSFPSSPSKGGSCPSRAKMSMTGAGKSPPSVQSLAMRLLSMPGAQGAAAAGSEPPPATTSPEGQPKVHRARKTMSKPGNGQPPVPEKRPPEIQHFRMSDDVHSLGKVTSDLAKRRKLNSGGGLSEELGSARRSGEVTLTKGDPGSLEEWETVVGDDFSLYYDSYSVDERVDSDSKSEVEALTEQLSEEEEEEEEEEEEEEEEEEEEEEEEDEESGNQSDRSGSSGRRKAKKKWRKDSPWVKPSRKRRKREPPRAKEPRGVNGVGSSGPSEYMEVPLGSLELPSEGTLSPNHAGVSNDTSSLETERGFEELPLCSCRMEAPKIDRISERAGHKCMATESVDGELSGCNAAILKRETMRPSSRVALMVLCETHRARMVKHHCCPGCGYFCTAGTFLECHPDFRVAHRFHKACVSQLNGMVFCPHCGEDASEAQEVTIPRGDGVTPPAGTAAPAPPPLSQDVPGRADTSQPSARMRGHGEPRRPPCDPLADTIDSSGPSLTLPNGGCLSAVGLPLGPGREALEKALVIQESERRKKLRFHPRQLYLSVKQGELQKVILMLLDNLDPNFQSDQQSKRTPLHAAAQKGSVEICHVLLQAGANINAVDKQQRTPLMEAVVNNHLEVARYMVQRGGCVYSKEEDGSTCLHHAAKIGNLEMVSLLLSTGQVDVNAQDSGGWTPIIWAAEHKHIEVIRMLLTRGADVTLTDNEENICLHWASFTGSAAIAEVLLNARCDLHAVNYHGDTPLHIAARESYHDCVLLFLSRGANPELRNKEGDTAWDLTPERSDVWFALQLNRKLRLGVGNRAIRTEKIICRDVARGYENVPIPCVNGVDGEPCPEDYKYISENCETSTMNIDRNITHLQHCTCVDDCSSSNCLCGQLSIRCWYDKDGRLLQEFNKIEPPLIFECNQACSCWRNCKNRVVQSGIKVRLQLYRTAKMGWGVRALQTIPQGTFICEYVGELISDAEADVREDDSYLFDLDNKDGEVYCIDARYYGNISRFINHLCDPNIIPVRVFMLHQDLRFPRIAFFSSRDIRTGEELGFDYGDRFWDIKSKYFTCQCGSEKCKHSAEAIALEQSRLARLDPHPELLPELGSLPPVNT
T1 sequence (Q9H9B1 2-1298 limits assumed): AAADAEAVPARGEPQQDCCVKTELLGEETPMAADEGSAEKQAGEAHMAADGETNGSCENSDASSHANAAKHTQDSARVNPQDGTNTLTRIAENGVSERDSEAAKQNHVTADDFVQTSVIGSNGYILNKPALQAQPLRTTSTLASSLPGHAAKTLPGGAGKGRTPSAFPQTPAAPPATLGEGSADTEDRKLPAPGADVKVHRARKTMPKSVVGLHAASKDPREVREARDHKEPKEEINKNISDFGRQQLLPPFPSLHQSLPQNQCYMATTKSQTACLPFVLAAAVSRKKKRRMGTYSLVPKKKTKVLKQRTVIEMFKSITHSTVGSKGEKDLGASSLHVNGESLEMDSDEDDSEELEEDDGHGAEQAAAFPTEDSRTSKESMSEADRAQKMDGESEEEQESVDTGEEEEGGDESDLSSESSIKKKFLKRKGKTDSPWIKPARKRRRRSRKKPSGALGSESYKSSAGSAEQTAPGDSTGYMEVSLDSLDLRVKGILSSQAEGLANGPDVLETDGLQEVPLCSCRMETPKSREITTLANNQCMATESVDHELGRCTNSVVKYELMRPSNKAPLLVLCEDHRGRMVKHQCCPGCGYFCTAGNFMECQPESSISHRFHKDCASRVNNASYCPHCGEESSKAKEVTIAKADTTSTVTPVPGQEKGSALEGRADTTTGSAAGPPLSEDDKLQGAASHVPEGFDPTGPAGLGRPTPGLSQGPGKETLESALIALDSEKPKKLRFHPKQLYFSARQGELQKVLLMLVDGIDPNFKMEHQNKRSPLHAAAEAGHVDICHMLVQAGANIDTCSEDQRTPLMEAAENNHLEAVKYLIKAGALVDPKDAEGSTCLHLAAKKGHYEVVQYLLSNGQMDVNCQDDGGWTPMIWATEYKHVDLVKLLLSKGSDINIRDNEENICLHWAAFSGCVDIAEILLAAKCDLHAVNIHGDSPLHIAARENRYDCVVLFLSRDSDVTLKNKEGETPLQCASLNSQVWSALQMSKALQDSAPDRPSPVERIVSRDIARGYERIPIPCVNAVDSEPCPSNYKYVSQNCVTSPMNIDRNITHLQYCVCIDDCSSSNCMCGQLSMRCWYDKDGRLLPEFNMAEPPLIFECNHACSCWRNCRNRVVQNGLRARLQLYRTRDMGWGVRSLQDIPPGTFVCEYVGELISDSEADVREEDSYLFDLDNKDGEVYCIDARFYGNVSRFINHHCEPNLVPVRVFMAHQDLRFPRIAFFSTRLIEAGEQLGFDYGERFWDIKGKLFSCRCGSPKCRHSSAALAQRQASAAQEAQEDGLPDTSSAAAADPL
Description: Triple SILAC pull-down after UNC0638 treatment of 293T cells, DMSO/UNC0638 ratio of protein captured by 3×MBT.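 For all read-outs here: mass spectrometry (Q-Exactive) SILAC quantitation, DMSO/UNC0638 ratio computed after subtracting 3×MBTD355N mutant pull-down background, only proteins with at least twofold 3×MBT over mutant signal considered.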 The format is cell-based. Also noted: endogenous in cells; host or cells: HEK 293T. To be noted: for Protein Ratios DMSO/UNC0638: SILAC ratio of protein captured by 3xMBT, 293T cells treated 24 hours with UNC0638 at 2.5 μM or DMSO.

B1: Hematological and neurological-expressed 1-like protein (protein, UniProt Q9H910 1-190, looked up)
Jupiter microtubule …: MFQVPDSEGGRAGSRAMKPPGGESSNLFGSPEEATPSSRPNRMASNIFGPTEEPQNIPKRTNPPGGKGSGIFDESTPVQTRQHLNPPGGKTSDIFGSPVTATSRLAHPNKPKDHVFLCEGEEPKSDLKAARSIPAGAEPGEKGSARKAGPAKEQEPMPTVDSHEPRLGPRPRSHNKVLNPPGGKSSISFY
B1: in experiment [1], the “Protein Ratios 3xMBT/D355N” value is 8.9. Also, in experiment [2], the “Protein Ratios DMSO/UNC0638” value is 1.6.

B2: RNA-binding protein 15 (protein)
chain: MRTAGRDPVPRRSPRWRRAVPLCETSAGRRVTQLRGDDLRRPATMKGKERSPVKAKRSRGGEDSTSRGERSKKLGGSGGSNGSSSGKTDSGGGSRRSLHLDKSSSRGGSREYDTGGGSSSSRLHSYSSPSTKNSSGGGESRSSSRGGGGESRSSGAASSAPGGGDGAEYKTLKISELGSQLSDEAVEDGLFHEFKRFGDVSVKISHLSGSGSGDERVAFVNFRRPEDARAAKHARGRLVLYDRPLKIEAVYVSRRRSRSPLDKDTYPPSASVVGASVGGHRHPPGGGGGQRSLSPGGAALGYRDYRLQQLALGRLPPPPPPPLPRDLERERDYPFYERVRPAYSLEPRVGAGAGAAPFREVDEISPEDDQRANRTLFLGNLDITVTESDLRRAFDRFGVITEVDIKRPSRGQTSTYGFLKFENLDMSHRAKLAMSGKIIIRNPIKIGYGKATPTTRLWVGGLGPWVPLAALAREFDRFGTIRTIDYRKGDSWAYIQYESLDAAHAAWTHMRGFPLGGPDRRLRVDFADTEHRYQQQYLQPLPLTHYELVTDAFGHRAPDPLRGARDRTPPLLYRDRDRDLYPDSDWVPPPPPVRERSTRTAATSVPAYEPLDSLDRRRDGWSLDRDRGDRDLPSSRDQPRKRRLPEESGGRHLDRSPESDRPRKRHCAPSPDRSPELSSSRDRYNSDNDRSSRLLLERPSPIRDRRGSLEKSQGDKRDRKNSASAERDRKHRTTAPTEGKSPLKKEDRSDGSAPSTSTASSKLKSPSQKQDGGTAPVASASPKLCLAWQGMLLLKNSNFPSNMHLLQGDLQVASSLLVEGSTGGKVAQLKITQRLRLDQPKLDEVTRRIKVAGPNGYAILLAVPGSSDSRSSSSSAASDTATSTQRPLRNLVSYLKQKQAAGVISLPVGGNKDKENTGVLHAFPPCEFSQQFLDSPAKALAKSEEDYLVMIIVRGFGFQIGVRYENKKRENLALTLL
For the molecule B2, in experiment [1] (pull-down 3xMBT vs 3xMBTD355N, experiment with UNC0638 in heavy SILAC media), the “3xMBT/D355N UNC Heavy” value stood at 2.14 log base 2. In addition, the “3xMBT/D355N UNC Light” value in experiment [1] (pull-down 3xMBT vs 3xMBTD355N, experiment with UNC0638 in light SILAC media) is recorded as 4.48 log base 2. Also, the “Protein Ratios 3xMBT/D355N” value in experiment [1] was 9.9. In addition, in experiment [2] (SILAC ratio DMSO/UNC0638 of protein pulled down with 3xMBT, UNC0638 in heavy SILAC media), the “Relative to UNC0638 UNC Heavy” value is listed as 1.65 log base 2. The “Relative to UNC0638 UNC Light” value in experiment [2] (SILAC ratio DMSO/UNC0638 of protein pulled down with 3xMBT, UNC0638 in light SILAC media) is on record as 0.26 log base 2. Besides, in experiment [2], the “Protein Ratios DMSO/UNC0638” value turned out to be 1.9. Moreover, in experiment [2] (average of UNC Light and UNC Heavy experiments), the “Relative to UNC0638 Average” value came out at 0.96 log base 2. Moreover, the “Candidate G9a/GLP target” value in experiment [2] (reduced association with 3xMBT after UNC0638 treatment) was “✓”.

B3: Peptidyl-prolyl cis-trans isomerase-like 4 (protein, UniProt Q8WUA2 1-492, looked up)
Peptidyl-prolyl cis-trans …: MAVLLETTLGDVVIDLYTEERPRACLNFLKLCKIKYYNYCLIHNVQRDFIIQTGDPTGTGRGGESIFGQLYGDQASFFEAEKVPRIKHKKKGTVSMVNNGSDQHGSQFLITTGENLDYLDGVHTVFGEVTEGMDIIKKINETFVDKDFVPYQDIRINHTVILDDPFDDPPDLLIPDRSPEPTREQLDSGRIGADEEIDDFKGRSAEEVEEIKAEKEAKTQAILLEMVGDLPDADIKPPENVLFVCKLNPVTTDEDLEIIFSRFGPIRSCEVIRDWKTGESLCYAFIEFEKEEDCEKAFFKMDNVLIDDRRIHVDFSQSVAKVKWKGKGGKYTKSDFKEYEKEQDKPPNLVLKDKVKPKQDTKYDLILDEQAEDSKSSHSHTSKKHKKKTHHCSEEKEDEDYMPIKNTNQDIYREMGFGHYEEEESCWEKQKSEKRDRTQNRSRSRSRERDGHYSNSHKSKYQTDLYERERSKKRDRSRSPKKSKDKEKSKYR
As to B3, the “Protein Ratios 3xMBT/D355N” value in experiment [1] stood at 4.0. Also, the “Protein Ratios DMSO/UNC0638” value in experiment [2] is recorded as 1.4.

B4: DDB1- and CUL4-associated factor 7 (protein, UniProt P61962 1-342, looked up)
DDB1- and CUL4-associated …: MSLHGKRKEIYKYEAPWTVYAMNWSVRPDKRFRLALGSFVEEYNNKVQLVGLDEESSEFICRNTFDHPYPTTKLMWIPDTKGVYPDLLATSGDYLRVWRVGETETRLECLLNNNKNSDFCAPLTSFDWNEVDPYLLGTSSIDTTCTIWGLETGQVLGRVNLVSGHVKTQLIAHDKEVYDIAFSRAGGGRDMFASVGADGSVRMFDLRHLEHSTIIYEDPQHHPLLRLCWNKQDPNYLATMAMDGMEVVILDVRVPCTPVARLNNHRACVNGIAWAPHSSCHICTAADDHQALIWDIQQMPRAIEDPILAYTAEGEINNVQWASTQPDWIAICYNNCLEILRV
Take B4: the “Protein Ratios 3xMBT/D355N” value in experiment [1] was 2.8. In addition, the “Protein Ratios DMSO/UNC0638” value in experiment [2] came to 1.5.

B5: Apoptosis inhibitor 5 (protein, UniProt Q9BZZ5 2-524, looked up)
Apoptosis inhibitor 5: PTVEELYRNYGILADATEQVGQHKDAYQVILDGVKGGTKEKRLAAQFIPKFFKHFPELADSAINAQLDLCEDEDVSIRRQAIKELPQFATGENLPRVADILTQLLQTDDSAEFNLVNNALLSIFKMDAKGTLGGLFSQILQGEDIVRERAIKFLSTKLKTLPDEVLTKEVEELILTESKKVLEDVTGEEFVLFMKILSGLKSLQTVSGRQQLVELVAEQADLEQTFNPSDPDCVDRLLQCTRQAVPLFSKNVHSTRFVTYFCEQVLPNLGTLTTPVEGLDIQLEVLKLLAEMSSFCGDMEKLETNLRKLFDKLLEYMPLPPEEAENGENAGNEEPKLQFSYVECLLYSFHQLGRKLPDFLTAKLNAEKLKDFKIRLQYFARGLQVYIRQLRLALQGKTGEALKTEENKIKVVALKITNNINVLIKDLFHIPPSYKSTVTLSWKPVQKVEIGQKRASEDTTSGSPPKKSSAGPKRDARQIYNPPSGKYSSNLGNFNYEQRGAFRGSRGGRGWGTRGNRSRGRLY
For B5, in experiment [1], the “Protein Ratios 3xMBT/D355N” value was determined as 8.6. For the same molecule, in experiment [2], the “Protein Ratios DMSO/UNC0638” value came out at 1.6.
